Data from PMC9023272 (Nucleic Acids Research, 2022).

Tests used:
[1] = target: T1, DEAD-box protein 5 (Dbp5), full length (Saccharomyces cerevisiae, UniProt P20449 1-482); experiment: detailed balance of Scheme 3 from measured equilibrium constants
T1 sequence (looked up): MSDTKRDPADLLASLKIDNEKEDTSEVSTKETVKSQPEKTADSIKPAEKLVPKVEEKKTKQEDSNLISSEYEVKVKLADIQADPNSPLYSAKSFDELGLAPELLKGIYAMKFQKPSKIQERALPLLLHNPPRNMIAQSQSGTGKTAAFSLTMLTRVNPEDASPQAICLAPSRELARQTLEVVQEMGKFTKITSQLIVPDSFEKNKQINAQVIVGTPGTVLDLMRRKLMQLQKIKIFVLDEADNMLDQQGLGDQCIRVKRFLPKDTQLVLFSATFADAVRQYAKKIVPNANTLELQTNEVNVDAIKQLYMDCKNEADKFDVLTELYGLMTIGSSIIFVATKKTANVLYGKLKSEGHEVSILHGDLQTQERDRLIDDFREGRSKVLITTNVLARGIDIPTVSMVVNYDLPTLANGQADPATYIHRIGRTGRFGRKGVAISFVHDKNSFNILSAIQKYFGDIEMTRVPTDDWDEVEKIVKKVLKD

[2] = target: T1, DEAD-box protein 5 (Dbp5), full length; experiment: stopped-flow fluorescence
[3] = target: T1, DEAD-box protein 5 (Dbp5), full length; experiment: detailed balance of Scheme 3 from measured equilibrium constants; remark: listed apart in the source
[4] = target: T1, DEAD-box protein 5 (Dbp5), full length; experiment: detailed balance of Scheme 1 from measured equilibrium constants
[5] = target: T1, DEAD-box protein 5 (Dbp5), full length; experiment: detailed balance of Scheme 3 from measured equilibrium constants; remark: listed apart in the source

B1: Gle1 (a.a. 244–538), soluble truncated (domain or fragment, Saccharomyces cerevisiae, UniProt Q12315 244-538, looked up)
chain: TNFDKISKMFWHYKDKIAQIKQDIVLPIKKADVNVRNLLSRHKRKINPKFGQLTNSNQQLFKIQNELTQLINDTKGDSLAYHWILNFIAKAVVHQAETEVRVKPESALPLGKLTLYLLVQFPELQELFMARLVKKCPFVIGFTCEIDTEKGRQNMGWKRNNENKWEDNTSYDERMGGILSLFAIITRLQLPQEFITTTSHPFPIALSWHILARICNTPLNLITNTHFVILGSWWDAAAVQFLQAYGNQASKLLILIGEELTSRMAEKKYVGAARLRILLEAWQNNNMESFPEMSP
With B1 the Kd [1] was 600 ± 200 nM, the Kd [2] was 170 ± 150 nM and the Kd [3] was 1.5 ± 0.8 nM. The Kd [4] was 800 ± 300 nM and the Kd [5] was 500 ± 200 nM.
